{"source": "paper doi:10.1101/2021.03.28.437436", "key": {"[1]": {"target": "Recombinant catalytically inactive S195A thrombin mutant (UniProt P00734)", "assay": "other fluorescence titration"}, "[2]": {"target": "Nα-fluoresceinated hirugen, [F]-hirugen", "assay": "other fluorescence titration"}, "[3]": {"target": "N-terminal 6xHis-tag derivative of human α-synuclein (6xHis-αSyn) (human) (UniProt P37840)", "assay": "SPR"}, "[4]": {"target": "Human plasma α-thrombin (αT) (human)", "assay": "other fluorescence titration"}}, "note": "Square brackets hold non-standard residues; d marks the D form. Ends that are not written are not given here. pY = N[C@@H](Cc1ccc(OP(=O)(O)O)cc1)C(=O)O"}
{"molecule": "Hirugen (C-terminal peptide 54-65 of hirudin HV1)", "values": [{"measurement": "increase of [F]-hirugen fluorescence on displacement", "setting": "[1]", "value": 65, "unit": "%"}]}
{"molecule": "Recombinant catalytically inactive S195A thrombin mutant (from UniProt P00734) (enzyme)", "values": [{"measurement": "Kd", "setting": "[2]", "value": 30, "unit": "nM"}, {"measurement": "Kd", "setting": "[3]", "value": 44, "unit": "nM"}]}
{"molecule": "βT-thrombin (βTT) (enzyme)", "values": [{"measurement": "fold decrease in affinity against S195A", "setting": "[3]", "value": 1.5, "unit": "fold"}]}
{"molecule": "VRPEHPAETE[pY]DSL[pY]PEDDL", "note": "[Fibrinogen γ’-peptide (C-terminal peptide 408-427 of fibrinogen elongated γ-chain splice variant)]", "values": [{"measurement": "fold decrease in affinity with 20 μM αSyn against no αSyn", "setting": "[4]", "value": 3, "unit": "fold"}]}
